Source: US20250136677A1 (ZOETIS SERVICES, published 2025)
Positions count from the first letter of the chain named. Like-named read-outs stand apart in the source and are kept apart here. Values belong to the binder of their own block, whether it stands above or below them.

Key:
[1] = target: T1, equine IL-31 protein (Equine_IL31) (equine); experiment: ELISA screening of hybridoma supernatants on equine IL-31
T1 construct: Recombinant equine IL-31
T1 chain: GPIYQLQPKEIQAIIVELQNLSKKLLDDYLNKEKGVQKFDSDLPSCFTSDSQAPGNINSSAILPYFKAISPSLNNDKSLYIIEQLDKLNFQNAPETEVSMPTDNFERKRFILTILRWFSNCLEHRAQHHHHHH

[2] = target: T1, equine IL-31 protein (Equine_IL31); experiment: SPR (Biacore), IL-31 surface, single antibody concentration
Description: (§1) For the indirect ELISA method, antibody binding to wildtype and feline IL-31 15H05 mutant proteins was assessed. All nine canine monoclonal antibodies (ZIL1, ZIL8, ZIL8, ZIL11, ZIL69, ZIL94, ZIL154, ZIL159, and ZIL171) were capable of binding to wildtype feline IL-31 and binding was impacted by mutations in the mAb 15H05 epitope region confirming the correct binding phenotype determined during the initial screening used to identify them. In comparison, the 11E12 antibody bound to the wild-type feline IL-31 and its binding was not impacted by the mutations in the 15H05 epitope region as evidenced by the data in FIG. 4. To confirm binding, biacore analysis was performed using canine, feline, equine, human, feline 15H05 mutant, and feline 11E12 mutant IL-31 proteins as surfaces and a single test concentration of antibody. Similar to ELISA observations, all antibodies tested bound to wildtype feline IL-31. In agreement with the data described above in this section, mouse antibodies 11E12 and 15H05 both bound to canine and feline IL-31 surfaces. Three additional antibodies where shown to have this dual binding property, ZIL69 (partial canine binding), ZIL94, and ZIL159. From this group of nine fully canine antibodies, only ZIL1 and ZIL9 cross-reacted with equine IL-31. Of note, antibody 15H05 was the only one of all assayed herein that bound to canine, feline, and equine IL-31 indicating some level of epitope conservation across the three species. In contrast, none of the antibodies described herein bound to human IL-31. Additional biacore surfaces were used to verify ELISA observations showing differential binding of antibodies to wildtype feline IL-31 and two proteins with mutations in the 15H05 (15H05 mutant) or 11E12 (11E12 mutant) epitopes.

[3] = target: T2, mutant feline IL-31 11E12 protein (Feline_IL31_11E12_mutant) (feline); experiment: as above
T2 construct: also called feline 11E12 mutant; 11E12 IL-31 mutant
T2 chain: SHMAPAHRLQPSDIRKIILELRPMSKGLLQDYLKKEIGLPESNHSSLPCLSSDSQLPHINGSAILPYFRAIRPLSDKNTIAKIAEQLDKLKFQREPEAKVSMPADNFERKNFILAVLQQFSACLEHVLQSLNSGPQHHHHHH
Description: as §1

[4] = target: T3, mutant feline IL-31 15H05 protein (Feline_IL31_15H05_mutant) (feline); experiment: indirect ELISA, IL-31 protein coated
T3 sequence: T2 chain with A81D, A84I, P103A, D105A

[5] = target: T4, wildtype feline IL-31 protein (Feline_IL31_wildtype) (feline); experiment: indirect ELISA, IL-31 protein coated
T4 construct: Full length feline IL-31 with C-terminal His tag, secreted from ExpiCHO cells; also called fIL-31
T4 chain: T2 chain with A81D, A84I
Description: as §1, with “epitopes. […] In agreement with the ELISA results, all fully canine antibodies were impacted by the 15H05 mutation with the exception of ZIL94, ZIL154, and ZIL171 (partially affected). Differing results can be attributed to differences in the two assay methodologies.” for “epitopes.”

[6] = target: T4, wildtype feline IL-31 protein …; experiment: SPR (Biacore), feline IL-31 (SEQ ID NO 157)
Description: The affinity with which candidate mAbs bind canine and feline IL-31 was determined using surface plasmon resonance (SPR) on a Biacore system (Biocore Life Sciences (GE Healthcare), Uppsala, Sweden). To avoid affinity differences associated with differential surface preparation that can occur when immobilizing antibodies to surfaces; a strategy was employed where IL-31 was directly conjugated to the surface. Immobilization was obtained by amine coupling 5 μg/mL IL-31 using N-hydroxysuccinimide (NHS)/1-Ethyl-3-(3-dimethylaminopropyl) carbodiimide (EDC) chemistry. Chips were quenched with ethanolamine and the affinity with which all candidate mAbs bound to the immobilized IL-31 was evaluated. All curves were fit to a 1:1 model. […] Results for affinity measurements are described herein.
Cellular potency was assessed using feline IL-31 to stimulate pSTAT3 signalling in FCFW4 cells. IC₅₀ vlaues were calculated for each antibody as described previously in this application. […] It is worth noting that both antibodies are considered potent with IC₅₀s in the range of those antibodies previously described herein from the 15H05 lineage (FIG. 3).

[7] = target: T4, wildtype feline IL-31 protein …; experiment: cell-based or functional assay
[8] = target: T4, wildtype feline IL-31 protein …; experiment: cell-based or functional assay
[9] = target: T5, human IL-31 (human, UniProt Q6EBC2 24-164); experiment: SPR (Biacore), IL-31 surface, single antibody concentration
T5 sequence: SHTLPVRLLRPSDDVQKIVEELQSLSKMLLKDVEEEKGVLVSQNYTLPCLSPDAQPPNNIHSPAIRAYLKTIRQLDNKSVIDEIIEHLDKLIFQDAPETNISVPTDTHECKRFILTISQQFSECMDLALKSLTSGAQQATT
Description: as §1

[10] = target: T6, mutant feline IL-31 15H05 protein (Feline_IL31_15H05_mutant) (feline); experiment: indirect ELISA, IL-31 protein coated
T6 construct: also called feline 15H05 mutant; 15H05 IL-31 mutant
T6 chain: T2 chain with A81D, A84I, P103A, D105A
Description: as §1, with “epitopes. […] In agreement with the ELISA results, all fully canine antibodies were impacted by the 15H05 mutation with the exception of ZIL94, ZIL154, and ZIL171 (partially affected). Differing results can be attributed to differences in the two assay methodologies.” for “epitopes.”

binding result [1]: binds
B2: mouse anti equine IL-31 antibody 06A09 (antibody, V domains shown)
VH: QVQLQQPGAELVRPGASVKLSCKAYGYTFTSYWMNWVKQRPGQGLEWIGMIDPSDSETHYNQIFRDKATLTIDKSSSTAYMQLSSLTSEDSAVYFCARQDIVTTVDYWGQGTTLTVSS
VL: DIVMSQSPSSLAVSVGEKVTMSCKSSQSLLYSINQKNFLAWYQQKPGQSPKLLIYWASTRESGVPDRFTGSGSGTDFTLTISSVKSEDLAVYYCQQHYGYPFTFGSGTKLEIK
notes: Mouse hybridoma antibody; also called Mu_06A09

binding result [2]: no binding | binding result [3]: no binding | ELISA OD [4]: 1.31 OD | ELISA OD [5]: 1.6 OD
B3: ZIL159 (recombinant fully canine antibody) (antibody, V domains shown)
VH: EVQLVESGGDLVKPAGSLRLSCVASGFTFSSYVMTWVRQAPGKGLQWVAGINSEGSRTAYADAVKGRFTISRDNAKNTLYLQIDSLRAEDTAIYYCATGDIVATGTSYWGQGTLVTVSS
VL: SNVLTQPPSVSVSLGQTATISCSGETLNRFYTQWFQQKAGQAPVLVIYKDTERPSGIPDRFSGSSSGNIHTLTISGARAEDEAAYYCKSAVSIDVGVFGGGTHLTVFR
notes: also called CAN-ZIL159

binding result [2]: no binding | binding result [9]: no binding | binding result [3]: binds | ELISA OD [5]: 1.62 OD | ELISA OD [10]: 1.38 OD
B6: ZIL154 (recombinant fully canine antibody) (antibody, V domains shown)
VH: EVHLVESGGDLVKPWGSLRLSCVASGFTFSDRGMSWVRQSPGKGLQWVAYIRYDGSRTDYADAVEGRFTISRDNAKNTLYLQMNSLRAEDTAVYYCARWDGSSFDYWGQGTLVTVSS
VL: DIVVTQTPLSLSVSPGETASFSCKASQSLLHSDGNTYLDWFRQKPGQSPQRLIYKVSNRDPGVPDRFSGSGSGTDFTLRISGVEADDAGLYYCMQAIHFPLTFGAGTKVELKR
notes: Fully canine IgG; also called CAN-ZIL154

Second part, the binder before the results:

B1: mouse anti equine IL-31 antibody 04H07 (antibody, V domains shown)
VH: B2 VH with Y25S, V37A, T58I, I63V, R65K, I72V, F95Y
VL: B2 VL with F38H, Y42F, D66A, S86T, H97G, G99T
notes: Mouse hybridoma antibody; also called Mu_04H07
binding result [1]: binds

B4: ZTS-5864 (antibody, V domains shown)
VH: DVQLVESGGDLVKPGGSLRLTCVASGFTFSDYAMSWVRQAPGKGLQWVAGIDSVGSGTSYADSVKGRFTISRDNAKNTLYLQMNSLKTEDTATYYCASGFPGSFEHWGQGALVTVSS
VL: QSVLTQPSSVSGTLGQRITISCTGSSSNIGSGYVGWYQQVPGMGPKTVIYYNSDRPSGVPDRFSGSKSGSSGTLTITGLQAEDEADYYCSVYDRTFNAVFGGGTHLTVLG
notes: see recheck
Kd [6]: 0.571 nM | kon [6]: 108000 M⁻¹ s⁻¹ | IC50, feline IL-31 stimulated pSTAT3 signalling in FCFW4 cells, relative to ZTS-5865 [7]: ~3 fold | IC50, inhibition of feline IL-31 induced pSTAT3 in feline FCWF4 cells [8]: 3.73 µg/ml

B5: ZTS-5865 (antibody, V domains shown)
VH: B4 VH with S35N, N84S, S85G, A111T
VL: B4 VL
notes: see recheck
Kd [6]: 2.12 nM | kon [6]: 76200 M⁻¹ s⁻¹ | IC50, inhibition of feline IL-31 induced pSTAT3 in feline FCWF4 cells [8]: 9.08 µg/ml
